Data as given in patent publication US20250223378A1 (MABCARE THERAPEUTICS, published 2025).
Positions count from the first letter of the chain named.

T1: PTK7 on the SK-OV-3 cell line (human ovarian cancer cells) (human, UniProt Q13308 31-1070)
T1 construct: whole, on cells
T1 sequence (looked up): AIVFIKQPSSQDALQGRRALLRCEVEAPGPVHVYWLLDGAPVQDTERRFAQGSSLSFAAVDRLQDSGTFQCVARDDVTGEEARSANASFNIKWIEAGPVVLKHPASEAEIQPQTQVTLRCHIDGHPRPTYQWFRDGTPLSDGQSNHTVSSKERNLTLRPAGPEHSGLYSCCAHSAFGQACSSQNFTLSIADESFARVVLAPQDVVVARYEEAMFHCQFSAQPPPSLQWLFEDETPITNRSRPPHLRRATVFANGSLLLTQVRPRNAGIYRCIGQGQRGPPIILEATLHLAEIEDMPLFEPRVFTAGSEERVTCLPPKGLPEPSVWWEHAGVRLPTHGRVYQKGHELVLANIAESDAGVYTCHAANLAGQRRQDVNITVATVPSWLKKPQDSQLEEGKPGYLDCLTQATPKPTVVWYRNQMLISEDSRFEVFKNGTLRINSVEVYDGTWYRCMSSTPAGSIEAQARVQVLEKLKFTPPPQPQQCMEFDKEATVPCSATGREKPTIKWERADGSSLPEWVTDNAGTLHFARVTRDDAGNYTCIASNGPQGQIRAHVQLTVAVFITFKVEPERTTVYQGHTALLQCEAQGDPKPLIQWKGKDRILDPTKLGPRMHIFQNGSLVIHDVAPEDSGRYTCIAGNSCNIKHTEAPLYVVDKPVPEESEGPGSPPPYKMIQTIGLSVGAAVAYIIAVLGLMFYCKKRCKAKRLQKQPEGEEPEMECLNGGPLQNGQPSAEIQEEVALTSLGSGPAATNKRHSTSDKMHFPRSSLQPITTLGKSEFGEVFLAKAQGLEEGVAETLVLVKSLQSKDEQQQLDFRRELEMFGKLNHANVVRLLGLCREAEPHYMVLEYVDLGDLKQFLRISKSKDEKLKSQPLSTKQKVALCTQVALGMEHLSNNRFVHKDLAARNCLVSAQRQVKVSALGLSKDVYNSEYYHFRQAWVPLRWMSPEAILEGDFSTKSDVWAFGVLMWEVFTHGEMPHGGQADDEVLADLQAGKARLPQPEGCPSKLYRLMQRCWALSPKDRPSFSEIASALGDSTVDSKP

T2: monkey PTK7 protein (Catalog No. PT7-C52H3, Acrobiosystems) (monkey, UniProt A0A2K5VNQ6 31-704)
T2 construct: Bought protein; not shown: The vendor's purification tag, probably a C-terminal His tag
T2 sequence: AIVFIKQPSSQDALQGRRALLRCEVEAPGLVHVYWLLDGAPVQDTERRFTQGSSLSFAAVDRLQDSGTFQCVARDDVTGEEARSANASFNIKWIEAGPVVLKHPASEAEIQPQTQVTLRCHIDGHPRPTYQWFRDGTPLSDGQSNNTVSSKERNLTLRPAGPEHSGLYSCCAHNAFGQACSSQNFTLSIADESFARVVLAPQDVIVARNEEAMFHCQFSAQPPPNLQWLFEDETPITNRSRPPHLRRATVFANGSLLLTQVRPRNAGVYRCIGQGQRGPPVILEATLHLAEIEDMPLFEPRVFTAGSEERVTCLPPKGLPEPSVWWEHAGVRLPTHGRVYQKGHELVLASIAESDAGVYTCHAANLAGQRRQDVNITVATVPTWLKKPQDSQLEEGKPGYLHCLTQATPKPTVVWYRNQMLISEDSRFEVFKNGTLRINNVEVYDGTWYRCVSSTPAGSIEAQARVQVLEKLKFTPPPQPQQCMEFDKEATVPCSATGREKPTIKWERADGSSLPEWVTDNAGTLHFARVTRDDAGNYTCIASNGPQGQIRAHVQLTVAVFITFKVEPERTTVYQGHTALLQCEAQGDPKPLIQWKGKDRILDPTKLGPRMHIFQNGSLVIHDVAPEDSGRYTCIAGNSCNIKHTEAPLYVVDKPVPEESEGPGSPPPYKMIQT

T3: murine PTK7 protein (Catalog No. PT7-M52H3, Acrobiosystems) (murine, UniProt Q8BKG3 23-696)
T3 construct: Bought protein; also called mouse PTK7
T3 sequence (looked up): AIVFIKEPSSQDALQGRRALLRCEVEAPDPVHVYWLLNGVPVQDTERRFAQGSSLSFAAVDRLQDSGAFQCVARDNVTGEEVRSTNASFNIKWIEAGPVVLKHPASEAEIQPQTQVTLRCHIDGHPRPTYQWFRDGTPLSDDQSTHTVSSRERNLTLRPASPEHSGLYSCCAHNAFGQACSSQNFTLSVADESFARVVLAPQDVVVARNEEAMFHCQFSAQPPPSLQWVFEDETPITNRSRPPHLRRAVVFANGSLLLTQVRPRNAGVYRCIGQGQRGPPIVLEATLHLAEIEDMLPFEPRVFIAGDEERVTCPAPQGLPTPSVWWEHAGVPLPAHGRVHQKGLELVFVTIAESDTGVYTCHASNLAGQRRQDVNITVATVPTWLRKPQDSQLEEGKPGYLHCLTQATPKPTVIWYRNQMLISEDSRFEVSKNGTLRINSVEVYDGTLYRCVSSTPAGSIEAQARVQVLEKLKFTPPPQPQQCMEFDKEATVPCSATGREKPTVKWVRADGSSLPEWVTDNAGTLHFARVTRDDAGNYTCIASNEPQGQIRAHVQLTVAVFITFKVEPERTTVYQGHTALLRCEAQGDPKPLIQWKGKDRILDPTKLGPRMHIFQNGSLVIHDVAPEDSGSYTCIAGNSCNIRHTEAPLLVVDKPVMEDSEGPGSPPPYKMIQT

T4: Human PTK7 protein (Catalog No. PT7-H52H3, Acrobiosystems) (human, UniProt Q13308 31-704)
T4 construct: Bought protein
T4 sequence (looked up): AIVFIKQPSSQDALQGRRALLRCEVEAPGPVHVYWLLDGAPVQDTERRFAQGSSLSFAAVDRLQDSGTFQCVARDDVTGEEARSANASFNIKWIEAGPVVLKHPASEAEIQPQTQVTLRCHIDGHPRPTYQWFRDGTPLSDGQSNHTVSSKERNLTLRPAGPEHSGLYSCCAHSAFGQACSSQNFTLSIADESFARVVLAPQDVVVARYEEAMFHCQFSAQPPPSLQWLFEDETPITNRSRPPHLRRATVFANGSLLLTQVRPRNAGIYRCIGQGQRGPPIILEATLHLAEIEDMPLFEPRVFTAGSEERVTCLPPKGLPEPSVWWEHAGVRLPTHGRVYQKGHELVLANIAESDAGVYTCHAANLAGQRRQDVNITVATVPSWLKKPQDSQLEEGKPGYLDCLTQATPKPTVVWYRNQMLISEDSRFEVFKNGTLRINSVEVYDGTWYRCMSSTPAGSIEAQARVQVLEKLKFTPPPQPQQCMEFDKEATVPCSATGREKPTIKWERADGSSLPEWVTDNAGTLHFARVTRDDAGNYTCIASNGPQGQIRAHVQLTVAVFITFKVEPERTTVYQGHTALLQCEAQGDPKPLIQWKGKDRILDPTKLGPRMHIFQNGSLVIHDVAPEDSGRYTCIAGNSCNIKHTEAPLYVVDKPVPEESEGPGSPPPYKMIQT

B1: humanized PTK7 antibody Hu13H3L3 (antibody, V domains shown)
VH: QVQLVQSGAEVKKPGASVKISCKGSGYTFTDYGMHWLKQAPGQGLEWIGVISPYYGDVNYNQKFQGRATMTVDKSISTAYMELSRLRSDDTAVYYCARGMGYWGQGTLVTVSS
VL: DVQITQSPSFLSASVGDRVTITCRASQSISKYLAWYQQKPGKAPKLLIYSGSTLQSGVPSRFSGSGSGTEFTLTISSLQPEDFAMYYCQQHNEYPWTFGQGTKVEIK
B2: humanized PTK7 antibody Hu13H3L5 (antibody, V domains shown)
VH: B1 VH
VL: B1 VL with F10Y, V15P, V19I, P44N
B3: humanized PTK7 antibody Hu13H2L3 (antibody, V domains shown)
VH: B1 VH with I20V, K38R, I48M, A68V, V72R, A92V
VL: B1 VL
B4: humanized PTK7 antibody Hu13H3L0 (Ab13) (antibody, V domains shown)
VH: B1 VH
VL: B1 VL with V2I, I4L, M85T
B5: humanized PTK7 antibody Hu13H2L0 (antibody, V domains shown)
VH: B1 VH with I20V, K38R, I48M, A68V, V72R, A92V
VL: B1 VL with V2I, I4L, M85T
B6: human-murine chimeric PTK7 antibody ch13 (antibody, V domains shown)
VH: QVQLQQSGAELVRPGVSVKISCKGSGYTFTDYGMHWLKQSHAKSLEWIGVISPYYGDVTYNQKFKGKATMTVDKSSSTAYMELARLTSEDSAIYYCARGMGYWGQGTSVTVSS
VL: DVQITQSPSYLAASPGETITINCRASQSISKYLAWYQEKPGKTNKLLIYSGSTLQSGIPSRFSGSGSGTDFTLTISSLEPEDFAMYYCQQHNEYPWTFGGGTKLEIK

How the values were obtained:
[1] = biological target: T1, PTK7 on the SK-OV-3 cell line (human …); assay: flow cytometry on SK-OV-3 cells, FITC goat anti-human secondary antibody, MFI
Method: SK-OV-3 (human ovarian cancer cells, ATCC, Catalog No. HTB-77) was digested with trypsin in a culture dish, and the digested cells were centrifuged at 1000 rpm for 5 min and then blocked with 10% goat serum (purchased from Beijing Solarbio Science & Technology Co. Ltd., Item No. SL038) for 30 min. The anti-PTK7 antibodies as prepared in Example 2 of the present disclosure were diluted in a 3-fold gradient with a starting concentration of 500 nM. At the end of dilution, the gradient diluted anti-PTK7 antibodies were added to the cells, incubated for 1 h, and washed twice with PBS. Then, FITC-labeled goat anti-human secondary antibody (purchased from Jackson ImmunoResarch, Item No. 109-545-008) was added at 1:500, incubated for 1 h, and finally washed twice with PBS. The results were analyzed by flow cytometry.

[2] = biological target: T2, monkey PTK7 protein (Catalog No. …); assay: ELISA, PTK7 protein immobilized on the plate, peroxidase anti-human IgG, OD450
Method: (§1) Human PTK7 protein (Catalog No. PT7-H52H3, Acrobiosystems), monkey PTK7 protein (Catalog No. PT7-C52H3, Acrobiosystems), and murine PTK7 protein (Catalog No. PT7-M52H3, Acrobiosystems) were incubated at 4° C. overnight and immobilized onto a 96-well plate. The plate was then blocked by incubating at 37° C. with 1% BSA in PBS for 1 h. After blocking, the plate was washed 3 times with PBST (PBS containing 0.05% Tween 20). Serial dilutions of anti-PTK7 antibody as prepared in Example 2 of the present disclosure was prepared in a binding buffer (PBS containing 0.05% Tween20 and 0.5% BSA) and incubated with the immobilized proteins at 37° C. for 1 h. After binding, the plate was washed 3 times with PBST, incubated with peroxidase-labeled donkey anti-human IgG (Jackson ImmunoResearch) diluted at 1/15,000 in the binding buffer at 37° C. for 1 h, washed again, developed with TMB and terminated with 1M H₂SO₄. The absorbance at 450 nm-620 nm was measured.

[3] = biological target: T3, murine PTK7 protein (Catalog No. …); assay: as above
Method: as §1

[4] = biological target: T4, Human PTK7 protein (Catalog No. …); assay: as above
Method: as §1

Binder	EC50 [1]	EC50 [2]	binding result [3]	EC50 [4]
B1	156 pM	–	–	–
B2	161 pM	–	–	–
B3	213 pM	–	–	–
B4	190 pM	–	–	–
B5	163 pM	–	–	–
B6	189 pM	47.2 pM	no binding	57.1 pM
